This note sets out measurements from the supplement of paper PMC9170038.

This data set deals with MS2 coat protein. Put plainly: apparent KD of MS2 coat protein; higher = weaker reporter binding. The note with it: Eterna round: R107. In outline: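 Illumina sequencing clusters were used for on-chip transcription of designed RNA switches. Titration with SNAP-549-labelled MS2 coat protein followed, in twofold steps from 0.7 or 1.5 nM to 3 µM in 100 mM Tris-HCl pH 7.5, 80 mM KCl, 4 mM MgCl2, without or with constant ligand. Apparent KD is each design's median of fits to normalised cluster binding curves.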

[1] abbreviates: input ligand: theophylline 20 uM.
[2] abbreviates: input ligand: theophylline 2 mM.
Setting [3] is: input ligand: tryptophan 2.4 mM.

Regarding “UAGAUAGAGGGAAGGAGCGCGAUAACAUAACAUGAGGAUCACCCAUGUAAGAAAUUAAUAAUGCAGGUAGGUCGCCCAAGAUGAU [Same State Arginine B gf1]”, the “apparent KD of MS2 coat protein” value by setting is: (input ligand: arginine 13.2 mM) 8.76 nM; (input ligand: none) 14.5 nM; under setting [1], 15.1 nM; under setting [2], 19 nM; under setting [3], 17.1 nM.

On to “UAAACUACACAUGAGGAUCACCCAUGUGGCCGAGGACCGGUACGGCCGCCACUCGUGUGUUAAUAAAAGAACCGCAAAGUUCUGU [Ticerear]”, for which the “apparent KD of MS2 coat protein” value by setting is: (input ligand: arginine 13.2 mM) 49.8 nM; under setting [1], 401 nM; under setting [2], 452 nM.

On to “AGGUGCUGAUCGGCCGCCACUGAGAGGACGUGAACUUUAGCUGGUUACAUGAGGAUCACCCAUGUCAGGACCGGGAUUAGUUUGC [Quleorla]”, for which the “apparent KD of MS2 coat protein” value was 11.3 nM (input ligand: arginine 13.2 mM), 17.4 nM under setting [1] and 10.7 nM under setting [2].

Consider “AUGCAUAGCGGAAGGAGCGCAAUAGAAUGACAUGAGGAUCACCCAUGUGUGUGAUGUGGAUUGCAGGUAGGUCGCCGAGUGGUAU [Exclusion - Arginine B (Freestyle 3)]”, for which the “apparent KD of MS2 coat protein” value was 35.9 nM (input ligand: arginine 13.2 mM); 45.1 nM (input ligand: none); 57.5 nM under setting [1]; 42.7 nM under setting [2]; 42.8 nM under setting [3].

On to “AUCAUGGCCAUCGAUACCAGCUACAUGAGGAUCACCCAUGUAAACGGCGCGGUGAGAUGUAGCCCUUGGCAGCGAAGGGUCAAGG [Beonrexe]”, for which the “apparent KD of MS2 coat protein” value reads like this: (input ligand: arginine 13.2 mM) 16.4 nM; (input ligand: none) 16.8 nM; under setting [1], 49.2 nM; under setting [2], 64 nM; under setting [3], 19.6 nM.

Regarding “UACUUGCUGACGGCCGCCACUAGUACAUGAGGAUCACCCAUGUACGGUCGCCCGGUGUGAUCCACUAGGACCGGGUCAGCAAGAU [(Trp1)-(Ms2)-(T)'-(M)'-(Trp2)_Design24]”, the “apparent KD of MS2 coat protein” value reads like this: (input ligand: arginine 13.2 mM) 38.4 nM; under setting [1], 42.9 nM; under setting [2], 48.5 nM.

For “CAGAGCUACCGGGAUACCAGAAUUGGUAUUCCUAUAUUUCUUACAUGAGGAUCACCCAUGUUCCCUUGGCAGCUUGGUAGCUCUG [ETHB #9]”, the “apparent KD of MS2 coat protein” value (input ligand: arginine 13.2 mM) came to 45.1 nM, the “apparent KD of MS2 coat protein” value under setting [1] stood at 87.6 nM and the “apparent KD of MS2 coat protein” value under setting [3] stood at 68.8 nM.

As for “CCUCAUGUGUAUCACCACAUGAGUGGUGAUACCAGCAUCGAAAGAUGCCCUUGGCAGCACCAACAUGAGGAUCACCCAUGUAAUA [(M)'-(T)'-(M)''-(T1)-(T2)-(M1)-(M2)_Design2]”, the “apparent KD of MS2 coat protein” value worked out at 60.3 nM (input ligand: arginine 13.2 mM), 284 nM under setting [1] and 287 nM under setting [3].

As for “AGUAAUCUAAGAGAUACCAGACGGUAUAUAACAUGAGGAUCACCCAUGUUUUGGGUGUACGUCCCUUGGCAGCUCAAAAUGAUAA [#06 Same State - Theophylline B]”, the “apparent KD of MS2 coat protein” value turned out to be 123 nM (input ligand: arginine 13.2 mM), 202 nM under setting [1] and 382 nM under setting [3].

Turning to “AUGGAGACCUCGGCCGCCACUCUCCAUGAGGAUCUCCCAUGUAACAUGAGGAUCACCCAUGUACUGAGGACCGGGAGGUCCUUGA [Same State Tryptophan B GF 17]”, the “apparent KD of MS2 coat protein” value reads like this: (input ligand: arginine 13.2 mM) 7.9 nM; under setting [1], 10.8 nM; under setting [2], 10.1 nM.

As to “GCACCAGGUACGGAUACCAGCUAUAGGUACAUGUCAGGACAUGAGGAUCACCCAUGUGGUAGCCCUUGGCAGCUGUACCUGGUGC [EThB NP+V+V2 #2]”, the “apparent KD of MS2 coat protein” value is, setting by setting: (input ligand: arginine 13.2 mM) 18.5 nM; under setting [1], 26.3 nM; under setting [3], 19.1 nM.

With “ACUAGUUGUGCAGAUACCAGACACGAGGAUCACCCGUGUUUGGGAUGUUCGCAUCUUCCUGUCCCUUGGCAGCUGUACAUCUAGA [Omei Theo B Exc v8]”, the “apparent KD of MS2 coat protein” value reads like this: (input ligand: arginine 13.2 mM) 15.8 nM; (input ligand: none) 15.1 nM; under setting [1], 23.5 nM; under setting [2], 221 nM; under setting [3], 17 nM.

For “AAAUAAAUACAUGAGGAUCACCCAUGUGAAGGAGCGCCCGUUAGGGCAGGUAGGUCGCGCAUGAAUAACUCCGUGCAAAAGCACA [ArgEX 19 #OpenEnded]”, the “apparent KD of MS2 coat protein” value (input ligand: arginine 13.2 mM) turned out to be 57.8 nM; the “apparent KD of MS2 coat protein” value (input ligand: none) is 15.6 nM; the “apparent KD of MS2 coat protein” value under setting [1] is 37.3 nM; the “apparent KD of MS2 coat protein” value under setting [2] worked out at 26.4 nM; the “apparent KD of MS2 coat protein” value under setting [3] is 19.6 nM.

Regarding “UUGUUGUUUGGAAGGAGCGUGGAUGAGUUAGAACAUGAGGAUCACCCAUGUUGGAUGAUACCGCAGGUAGGUCGCCGGGUGGUGG [11.aA]”, the “apparent KD of MS2 coat protein” value is, setting by setting: (input ligand: arginine 13.2 mM) 141 nM; (input ligand: none) 50.7 nM; under setting [1], 76.4 nM; under setting [2], 40 nM; under setting [3], 51.5 nM.

With “ACCUGUACGAAAAGUGCAGGACACGGAAUACGAGGACCGGUACGGCCGCCACUCGGAAUAAACCUGAGGAUCACCCUGGUCCGUG [TrypAS 9 #AlternativeMS2 #Zipper #StaticStem]”, the “apparent KD of MS2 coat protein” value runs as follows: (input ligand: arginine 13.2 mM) 26.8 nM; (input ligand: none) 25.1 nM; under setting [1], 39.1 nM; under setting [2], 34.4 nM; under setting [3], 32.2 nM.

For “ACAUGAGGAUCACCCAUGUUCCUCUUUGAUACCAGUGAGUUGUUUCGCCCUUGGCAGCGAGUUUUUUUUUUUUUGUUUUGUUUGG [6.R]”, the “apparent KD of MS2 coat protein” value runs as follows: (input ligand: arginine 13.2 mM) 173 nM; under setting [1], 351 nM; under setting [3], 264 nM.

On to “GAAGGAGAACUCAUGACUCCUUCCCUGGAAGGAGCGAGCGAAAGCUCAGGUAGGUCGCCAGAAACAUGAGGAUCACCCAUGUAAU [(A)''-(M)'-(A)'-(Arg1)-(Arg2)-(M1)-(M2)_Design4]”, for which the “apparent KD of MS2 coat protein” value is, setting by setting: (input ligand: arginine 13.2 mM) 28.5 nM; (input ligand: none) 37.4 nM; under setting [1], 48 nM; under setting [2], 43.3 nM; under setting [3], 40.1 nM.
